Measured values reported in the DeepSol protein solubility set.

Experiment: soluble on expression in E. coli; label from the status in PepcDB or PDB records

Row | Sequence | soluble on expression in E. coli
1 | MDFSEASTSGDRVNGFAKPFPPKPREGAPPPAPPLAPGASTSQAPPPLQPPPVIESAEKFYVPGVEEKSKFRILSQQVEISNLNISTRSFNVRTEIVLLPCEKSLYQLDLHIGKCSLLPNEVPGSASKVTLNGVECEYSRRDFWKDLAQEKSISSLEPVLYEKLAENDYELQILIPKEVRKKIKHRKAVRLRVDTVVRDPPRGLQFVDFNEHDCHVFTYHTPHISGAREWTVCLDEPDQLALWELTFELEPHLVPVASGELEEKREVSENGKIRYKFHQTVPTSACNIGWAIGRFKLEPHPESPTIYTFSLPGLEPFVNHTTMYLDKMVEFLEEKLSCRFPYPTLKVVFVDQCTEEIQVYSSLLIVPTAMLYHKKIIDVVQEARQKLIFSIALQFFGCLISPAQWWHWWIPVSIARFLTSLYVETKLGTAEARWQLKRAMDDVCDYEHQWGKIVLSPPEPTKKLPLHVDPRHEYTASPLYVEAMLKKGFLTMRMLQRRIGLEPFMRVLHRVLTVGLDMSEKKTTPAAWRHLLTTTESFFRSVISVTGKEIPSFLSQFVRTGGHAAFAVKFDFNRKRNIVEIEIKQDDTEGNGRTQYTGPLSVVVQEVDGAFTHTIQIDGAVSHAEISCHSKGRKQRKKKVPLLTGEEIEIDLTNMDAESPILWLRIDPDYLLIREITISQPMFHWEYMLRYERDVIAQMEALERIQALPSAHSRSVIVDAVANEKFFYRIRYRAAFVLTFVQNRKSEALTVGTPVLINMFRESFGSKAATNIPRSNNFVVTAQNLQQYFVMQALPQAIARLRRQSGECHEDVQPFLLDLIKFNDNSTNRYSDDFYRAALYNSLASSVFPHDALPCHVELPENLSNDVRVLIKEFTYALNMDTVSPSWGRVVGAAALTGLYQLQKCGYLPLDSQLLWTFSHPNCCVQMRRCAITLIIDRIVNDPHAADTRMLDLSRILELAELEQDPSIRRMIPRLLAQTPPTIFGSENAANTAETAERLWKLCTNSSIDSCIRSGFLDVYYSLYALGAPPALGGPEESVGIHRAYVTVPNAASTFATSQWHNSGYEAARRSPPRRDFGDETMNLMQ | soluble
2 | MGSDKIHHHHHHMSGDTCLCPASGAKPKISGFKGGGLGNKYVQLNVGGSLYYTTVRALTRHDTMLKAMFSGRMEVLTDKEGWILIDRCGKHFGTILNYLRDDTITLPQSRQEIQELMAEAKYYLIQGLVSTCQTALQDKKDSYQPVCNIPIITSLREEDRLIESSTKPVVKLLYNRSNNKYSYTSNSDDHLLKNIELFDKLSLRFNGRVLFIKDVIGDEICCWSFYGQGRKLAEVCCTSIVYATEKKQTKVEFPEARIYEETLNVLLYETPRVPDNSLLEATSRSRSQASPSEDEDTFELRDRVRRIHVKRYSTYDDRQLGHQSTHRD | not soluble
3 | MMSKQPTSKRQWRDGAAPSAKKTAKPFKSKARPKDETGKTASQPYGQKASDGIKPQNVPKQRAAKAKKLVVRNPNQKIMEHARDLKERRSDLSRMEPERLQKVLAASGVGSRREMEEWITNGWITVNGKTAQLGDKVTPDDHVTVKGSIIKLKWADRLPRIILYYKQEGEIVSRDDPQGRVSIFDRLPQAASSRWVAIGRLDINTSGLLILTTSGELVQRFAHPSFEVEREYAVRVLGGLTGEQMRVLTEEGVMLEDGLAKVERIREQGGEGANKWYNVVIKEGRNREVRRIFESQGLTVSRLVRIGFGPIGLPNRLKRGQFYELNPAEVANIIKWADMLLPGERRRKKA | not soluble
4 | MGITDGVVVDLGGGTTGISILEKGKVIFVADEPTGGTHMTLVLAGSYGIDFETAEDIKTDKKKEKEVFVQITPVLQKMAAIVKKYIKDYKVKDVFLVGGACSFDGSESIFERELGLNIYKPYMPVLEHHHHHH | not soluble
5 | QGIETVTKANGYETLLAHFSYDELEEERKIASLLSYQVDGLILTESHHTPRTLQMIKNAGVPVVETMELPPQPIDMAVGLDHEDASYNAVKRMLDAGKRTIVYFGARLDTRTKLRMQGYDRAMNEAGLEPKHVLTGVHSSFSLAHDLLERALKTYPTLDGVFCTNDDIAIGTMLSAQQRGIQVPQQLAVVGYNALDIGQTISPKLTSVDTPRFQIGVKSAELLIARLKGEAQEEKVFDMGYQITSGESV | not soluble
6 | MSVESSNQTTSLSSYLLKCAFSFGTAPPSLSPPSSTGSYEEADFSRFVQQNETGHKLTSYQSLANRDPCTIPDELHQEMKSLKKKEEAFKTSLCGFHRRGQKCAYGEKCKFAHSVHELRFPQTKRNHRNYKTVLCNNFSTTGHCKYGIRCQFIHRSMDSTSSNQSNETENITIDLNVQSDVFRAFALDSTSSLPNWHCSALLH | not soluble
7 | MGSDKIHHHHHHMLNNYMSILSLNENDNDIKSLTKARPLASIPIAGRYRIIDFILSNLVNSGVKNIGILTQCKSRSLLDHLGSGKPWDLDRKLNGLFIFNFSGITSTLSDIEMLKSNMEYLYRSTQEKVILSSSAVICNIDFQRAAEFHEKSGKDITLIYKRTNNGKRKFLNCSVLNMDKNNNVISIGKNTGLDDVQNISLGMFIMNKKLLINILNNCIRTGFSLSLKQCIRKHMNNFTVNAYEFNGYAEYIDSVKSYYKVNMDMLNLDINREVFFKNGLIYTKVKDEAPTKYFNDSEVCNSLIANGSLIHGQIENSIIGRRVTISKGARIKNCVIMQNCTIKENVDLTNVIVDKNVIIDENTVLKGGKEFPLVIEKKSIYSEV | not soluble
8 | MTDKYRLRERVWDDLEDSGVARFPFPPHGRIPNYAGADEAAARLTETDVWQRAETVKANPDAPQLPVRRAALRAGKTLYAAVPRLRDEECFLRLDPTTIDDIDAATTVSGIEEYGDPVGPGDVDPIDLIVSGSVAVTDRGERVGKGEGYSDLEFALLRAFGRVDDDTATVTTVHERQVVDDAVPTAAHDVPMEYVVTPDRTITTTHEDDTPSGIDWDALDEQRLAEIPVLDRRSP | soluble
9 | MNPLKAGDIAPKFSLPDQDGEQVNLTDFQGQRVLVYFYPKAMTPGCTVQACGLRDNMDELKKAGVDVLGISTDKPEKLSRFAEKELLNFTLLSDENHQVCEQFGVWGEKSFMGKTYDGIHRISFLIDADGKIEHVFNDFKTSNHHDVVLNWLKENA | not soluble
10 | MAVNLNPPQAGQLPAVAGVELLVAEAGIKTPGRKDVLVVKLDKGNTVAGVFTRNRFCAAPVQLCQEHLAAGVQIRALVVNTGNANAGTGFDGRARALSVCRAVAERDQLQTEQVLPFSTGVILEPLPADKIVAALPALRQADWAEAAEAIMTTDTLAKAASRRLDIGGKAVTVTGIAKGSGMIHPNMATMLGFVATDAAVTRPMLNQLVREVADQSFNSITVDGDTSTNDSFILISTGQSGAELIDSAEQPAYQQLKQALLEVAIELAQAIVRDGEGATKFITVDVNGGRSVAECKDVAYAIARSPLVKTAFFASDPNLGRLLAAIGYAGVADLDVDRLSLYLDDVLVACEGGRNPAYKEAQGQAVMNQSEITVRVELGRGSASARVWTCDFSYEYVRINADYRSLEHHHHHH | not soluble
11 | DPQSVETALNVAREGLVLLKNENNILPINPQKYKHIIVTGKNAHGYVHGGGSGAVVPFHYTNLFDGIQKEGKLNNVKVEYIDELDFMPSIMYTDDNLNEKGFHAEYFKNIHFEGAPVVKQTEKKINYSWAAGTELEGMPKDYFSVKWYSTMCVDETADYEFTLGGDDGYKLFINDQPIIDDWTPGGFRTTNVTKTLKAGEKYHVRVEYYQQGGGAGICFLWKRKNETQNKFADYLNKADLVIACFGHSSDTEGEASDRTFELPEVDKKMLASLSGCKKPVIGIVNAGGNIEMQKWEPSLKGLIWGFYGGQEAGTAIGEALFGKVNPSGKLPMTFEKKWEDSPAYNSYHDPDKDKHVAYTEGIFIGYRGYDKLKREVQYPFGYGLSYTTF | not soluble
12 | MYSFTTERLMIRPLRAEDEVFYCQLYADSKVMENIGKTITKKQARQWFKRALKALSSPKKSVVTLAIVKKSTNNIIGIQALSWQNTTQILKPCSQKLVQAEIGIMLTTKAQGQGFGKEAIKALMAYGFVYHSLDRINAFYAKKNLASERLFNSLH | not soluble
13 | VTDDLEPTAPAAAAPEPEVKGIDLARRALEEARAAAKASGKSVGQGRRSGTGVRALRARRRRGWSGPGPDDRDPQPFGALTNAIAKQRGWSPKVSEGTVLGRWVQVVGEDIAAHAEPTGLRDGILSVSAESTAWATQLRMMQSQILAKIAAAVGDGVVKSLRITGPTAPSWRKGERHIRGRGPRDTYG | not soluble
14 | MTKLEVCCYSVDCAQIAEKAGADRVELCCGQSEGGVTPSVGALMQARETVTIPVHPIVRPRGGDFCYSSNDFTIMKNDIARIRDLGFAGVVVGVLDTDGHIDMPRMREIMSVSGSLAVTFHRAFDMCQNPMIALKQLAELNVARILTSGQQQNAELGLALLKDLVAATKDQGPIIMAGAGVRLTNMQKFIDAGIRELHSSAGRTVPSTMRYRKAGVTMCADSDVDEFSHYCVDGEVVEAMKSLLVMGSPLAKHT | soluble
15 | MSDEAWKQTLICESINDKIGYWEYLAVTDKRRRSRNKAQSSGAENYKKVLEEQQRIYTAGGMGYGPEMYQVISNPMRNQKRVNNIEGSKIFAAMNSGAPRIALDIQYVEEMNKRDSGELGNQMQYTISENFSAKSPFVLDFVNSPSKEFLEQWLSKSVGYYTGNYINQTILPDFSTKGIKEFYGKSANTIYISSNARDVLDGPLTADVIGICVTMGRKREALSAARRANIRAYRLPIHRYVKWKSGPQYLPFPNIMNVLREVYMNGGDWSRALHNNISKRHLVNADDDEQKKMQMLRRRAREEERRELTEAIMSATKG | not soluble
16 | MSSYEMFADKNIVAGELANLMASAGWGTEGDYDATAIEKSLSAYPMIAYCRDSDGLLVGYISAFTDGAFSTFVGELVVRPTYQQRGIGSALLAMIVEKCRGVPVYATPFQGTEKFFLDRGFRVPERPMSVVSMRNVT | not soluble
17 | MTVLAQLYYKYGTMNSGKTIEILKVAHNYEEQGKPVVIMTSSLDTRDGFGVVASRIGMRREAVTITDDMDIFAYIENMFKKPYCILIDESQFLSQKNVYDLARIVDELDVPVMAFGLKNDFQNHLFEGSRELLLLADKIEEIKTICQFCSKKATMVLRTENGRPVYKGNQIQIGGNETYIPVCRRHYFHPPIKALEHHHHHH | not soluble
18 | MAELYYEDNRAYSYTQSFLKMFYLIFGQAYSRDYLSIDKYNKLCSNKDTKIHMPKLKIDEETNIVFFSKEEMQQLDNYFKGTNVETAYLLGKYCGLRINECFGLKWDKIDLKNGTITIDRQMQYQNGMIKLVPLKTRNAKRKIYMCSKLKEYFTNLMQQQEKYKTELAELRQQKQTLIKDIQGNTISSLELVNSMPIGRMQTVNAMKYHTRTLKEKYHIDFKYHYLRHTYGTTLATLNTPEHLLCNQMGHSSSSVTHKYYIGISKQGIDELLKNLERV | not soluble
19 | MGSDKIHHHHHHMAYQLRSAALTNYVEVARAVGLDPYQQLRAARISRSVLLDPDIRIPAQAVSRLLESSANAAGIQDFGLRMAETRQLSNLGPLAFAMRQEPTLRRALESMARYLRLQNEAIAMRIEEAEGLVMLRQEALTGVAGSLRQSTDLVVGVLYRVLALVLGPKWRPRSICFSHAAPGSTAMYLRLFGMPVLFNQEFDGIICVASDLEVPLPSYDPTMARQVQQYLDTMLAQSDATISDKVRRLVLALLPSGACTIERVAQHMGVDVRTVQRRLANYDETFSAIVTATRVDLATRYLENRERPLSEVATLLGFGSLSAFSRWFGGHFGCSVSKWRAKGFAKAVKKEGAGRSH | not soluble
20 | MIYEIKFAHGESNVFAISDIELAPQTEVILRSDKGNFYGKIVREISEEANLEIHHTIVREVNEDDLQVIAKLEERSKQAKDKVRQLVIEQGLEMKIIDVAYNFDQMQLFISFTAENRVDFRLLLRELATTFRIRIELRQIGPRDAAKIHGGLGPCGRPLCCSEFVYEFPNVSIKMAKNQNLSLKQNKLNGLCGRLMCCLTYEDSFYKEAQQLFPDFGEFVTTSEGKGKVVGLNVLKNRVKIRFGEYSKDFELAEIEVNHGLEHHHHHH | soluble
